The target in data set [1] is RPB1, the largest (220 kDa) subunit of Pol II, within purified Pol II (UniProt P24928).
Data set [2] deals with rGST-CTD, recombinant glutathione-S-transferase fusion protein containing a portion of the CTD of RPB1 of Pol II (UniProt P24928).
Data set [3] concerns the target FLAG-tagged DSIF p160 (FT-DSIFp160) (UniProt O00267).

Here are results for two substances from patent US20030039658.

Chain of Cyclin T1 (chain, as listed by the source): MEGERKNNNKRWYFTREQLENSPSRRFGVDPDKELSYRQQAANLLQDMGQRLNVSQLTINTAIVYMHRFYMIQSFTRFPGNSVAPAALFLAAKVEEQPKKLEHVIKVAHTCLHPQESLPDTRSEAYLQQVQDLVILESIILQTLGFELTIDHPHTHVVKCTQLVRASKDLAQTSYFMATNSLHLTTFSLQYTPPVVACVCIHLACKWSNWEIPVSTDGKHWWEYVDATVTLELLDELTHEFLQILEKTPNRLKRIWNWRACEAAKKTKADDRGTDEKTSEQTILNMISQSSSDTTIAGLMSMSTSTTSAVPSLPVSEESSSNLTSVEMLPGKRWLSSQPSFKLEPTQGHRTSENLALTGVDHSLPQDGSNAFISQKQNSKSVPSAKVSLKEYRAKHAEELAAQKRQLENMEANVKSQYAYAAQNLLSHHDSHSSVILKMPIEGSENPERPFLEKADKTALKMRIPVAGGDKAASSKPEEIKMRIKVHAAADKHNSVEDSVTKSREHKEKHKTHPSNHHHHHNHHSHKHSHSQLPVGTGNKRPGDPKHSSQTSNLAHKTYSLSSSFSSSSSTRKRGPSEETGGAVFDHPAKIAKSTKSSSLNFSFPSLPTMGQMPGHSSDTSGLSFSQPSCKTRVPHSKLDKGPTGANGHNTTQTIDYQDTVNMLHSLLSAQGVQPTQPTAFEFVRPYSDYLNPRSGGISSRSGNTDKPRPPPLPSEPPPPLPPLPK

Turning to FLAG-tagged CDK9 (FT-CDK9), the “in vitro kinase assay (phosphorylation of the substrate)” value was “The f:CDK9 immunopurified preparation was able to phosphorylate both rGST-CTD and RPB1 within Pol II” in data set [1]; “The f:CDK9 immunopurified preparation was able to phosphorylate both rGST-CTD and RPB1 within Pol II” in data set [2]; “the immunopurified f:CDK9 actively phosphorylated a circa 160 kDa polypeptide, most likely f:DSIF p160, within an immunopurified f:DSIF p160 preparation” in data set [3]. In addition, the “in vitro kinase assay (autophosphorylation of the preparation)” value in the data set on Cyclin T1 is “The FT-CDK9 immunopurification autophosphorylates specific components circa 45 kD and 87 kD, consistent with the molecular weights expected for Cyclin T1 and a FT-CDK9”.
For “FLAG-tagged CDK9M (FT-CDK9M), CDK9 with the D167N mutation”, the “in vitro kinase assay (phosphorylation of the substrate)” value in data set [1] and in data set [2] was “significantly impaired in its ability to phosphorylate either rGST-CTD or RPB1 within Pol II” throughout. In addition, in the data set with Cyclin T1, the “in vitro kinase assay (autophosphorylation of the preparation)” value is given as “The FT-CDK9M immunopurification was significantly weaker in its ability to autophosphorylate the 87 kD band”.
